The results in this text go back to the supplement of paper PMC10899765.

What all share (conditions): 20 nM; 72 h
Data set [1] has as its system MCF10A. The experiment in a line: 5+ nucleoli phenotype percent effect (relative to siNT 0% and siKIF11 100%); higher = more cells with five or more nucleoli. The procedure: (§1)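 After 72 h, cells were fixed and stained with Hoechst and anti-fibrillarin, and nucleoli per nucleus were counted with CellProfiler. Values are plate-adjusted percent effect for the one-nucleolus and 5+ nucleoli phenotypes, normalised to siNT (0%) and to the positive controls siNOL11 or siKIF11 (100%), as the mean of biological triplicates. Percent viability is the nuclei count relative to siNT.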

Data set [2] has as its system MCF10A. As to the kind of experiment: one-nucleolus phenotype percent effect (relative to siNT 0% and siNOL11 100%); higher = more cells with one nucleolus (ribosome biogenesis inhibition). The procedure:
as §1

Data set [3] deals with MCF10A. As to the kind of experiment: percent viability (nuclei count relative to siNT); higher = more viable cells. The procedure:
as §1

With “CAGUGGCCAGAGCCCUGCAGUG [hsa-miR-3677-5p]”, the “5+ nucleoli phenotype percent effect” value in the data set with MCF10A [1] was -20.3%. In addition, the “one-nucleolus phenotype percent effect” value in the data set on MCF10A [2] was 16.6%. For the same sequence, the percent viability with MCF10A [3] turned out to be 28.6%.
Consider GAGAAAUGCUGGACUAAUCUGC [hsa-miR-5680], for which, in the data set with MCF10A [1], the “5+ nucleoli phenotype percent effect” value was determined as 27.3%. Besides, the “one-nucleolus phenotype percent effect” value with MCF10A [2] was -20.6%. Also, the percent viability with MCF10A [3] came to 93.7%.
The like results for “AAGUAGUUGGUUUGUAUGAGAUGGUU [hsa-miR-1244]” were, in that order, -0.297%, 12.3% and 44.6%.
Consider “UCACCAGCCCUGUGUUCCCUAG [hsa-miR-1226-3p]”, for which the “5+ nucleoli phenotype percent effect” value in the data set with MCF10A [1] was -42.2%. The “one-nucleolus phenotype percent effect” value in the data set on MCF10A [2] was 33.5%. For the same sequence, the percent viability with MCF10A [3] was found to be 31.7%.
For GGUGGCCCGGCCGUGCCUGAGG [hsa-miR-663b], the “5+ nucleoli phenotype percent effect” value in the data set on MCF10A [1] turned out to be 47.3%. The “one-nucleolus phenotype percent effect” value in the data set on MCF10A [2] is -23.6%. The percent viability with MCF10A [3] was determined as 124%.
Regarding AAAGACUCUGCAAGAUGCCU [hsa-miR-4432], the “5+ nucleoli phenotype percent effect” value in the data set with MCF10A [1] was -6.99%. In addition, the “one-nucleolus phenotype percent effect” value with MCF10A [2] is -5.81%. For the same sequence, the percent viability in the data set on MCF10A [3] was found to be 67.3%.
Regarding “CGGGGCCAUGGAGCAGCCUGUGU [hsa-miR-6762-5p]”, in the data set with MCF10A [1], the “5+ nucleoli phenotype percent effect” value turned out to be 28.2%. Also, in the data set on MCF10A [2], the “one-nucleolus phenotype percent effect” value was -11.4%. Further, in the data set on MCF10A [3], the percent viability came out at 86.4%.
For UCAAUCACUUGGUAAUUGCUGU [hsa-miR-4705], in the data set with MCF10A [1], the “5+ nucleoli phenotype percent effect” value stood at 38.7%. For the same sequence, the “one-nucleolus phenotype percent effect” value with MCF10A [2] was -19.5%. For the same sequence, the percent viability with MCF10A [3] was 53.1%.
In the case of CAAAGUUUAAGAUCCUUGAAGU [hsa-miR-561-3p], the “5+ nucleoli phenotype percent effect” value with MCF10A [1] was found to be 23.4%. For the same sequence, the “one-nucleolus phenotype percent effect” value with MCF10A [2] is -26.2%. In addition, in the data set with MCF10A [3], the percent viability is 182%.
On the same counts, the results for “AGUUGCCAGGGCUGCCUUUGGU [hsa-miR-6501-5p]” are -26.4%, 5.87% and 47.2%.
In the case of GCAGGCACAGACAGCCCUGGC [hsa-miR-4269], the “5+ nucleoli phenotype percent effect” value in the data set with MCF10A [1] is -29%. The “one-nucleolus phenotype percent effect” value in the data set on MCF10A [2] amounted to 43.1%. Further, the percent viability in the data set with MCF10A [3] stood at 30.1%.
Regarding “CACCUUGCGCUACUCAGGUCUG [hsa-miR-3200-3p]”, in the data set with MCF10A [1], the “5+ nucleoli phenotype percent effect” value is -0.139%. For the same sequence, the “one-nucleolus phenotype percent effect” value with MCF10A [2] is -8.76%. For the same sequence, the percent viability with MCF10A [3] is 24.5%.
On the same counts, the results for UUUAAGAAAACACCAUGGAGAU [hsa-miR-3658] are 18.1%, -25.1% and 148%.
On to “GCUCUGACGAGGUUGCACUACU [hsa-miR-301b-5p]”, for which the “5+ nucleoli phenotype percent effect” value with MCF10A [1] was found to be 15.2%. Further, the “one-nucleolus phenotype percent effect” value in the data set with MCF10A [2] is -22.6%. Also, the percent viability in the data set with MCF10A [3] was found to be 60.8%.
As to AACGCACUUCCCUUUAGAGUGU [hsa-miR-521], the “5+ nucleoli phenotype percent effect” value with MCF10A [1] amounted to 28.6%. For the same sequence, the “one-nucleolus phenotype percent effect” value in the data set with MCF10A [2] was -9.21%. Further, the percent viability with MCF10A [3] is 57.9%.
On to CCCUUGGGUCUGAUGGGGUAG [hsa-miR-3189-3p], for which the “5+ nucleoli phenotype percent effect” value in the data set with MCF10A [1] is -6.22%. Besides, the “one-nucleolus phenotype percent effect” value in the data set on MCF10A [2] was 15.4%. Besides, the percent viability with MCF10A [3] turned out to be 25.3%.
Regarding GUCCGCUCGGCGGUGGCCCA [hsa-miR-572], the “5+ nucleoli phenotype percent effect” value in the data set on MCF10A [1] was -5.13%. Further, the “one-nucleolus phenotype percent effect” value in the data set with MCF10A [2] is -16.2%. Besides, the percent viability in the data set with MCF10A [3] was 96%.
For “UAGAUCUUUGACUCUGGCAGUCUCCAGG [hsa-miR-7161-3p]”, in the data set on MCF10A [1], the “5+ nucleoli phenotype percent effect” value came to 28.4%. In the data set with MCF10A [2], the “one-nucleolus phenotype percent effect” value was -23.9%. In the data set with MCF10A [3], the percent viability turned out to be 87.7%.
Turning to UUUAGGAUAAGCUUGACUUUUG [hsa-miR-651], the “5+ nucleoli phenotype percent effect” value in the data set with MCF10A [1] was 33.3%. The “one-nucleolus phenotype percent effect” value with MCF10A [2] was -20.4%. Also, in the data set on MCF10A [3], the percent viability worked out at 140%.
The like results for “UCUGUCAUUUCUUUAGGCCAAUA [hsa-miR-215-3p]” were, in that order, -6.58%, 2.4% and 39.5%.
As to “AGACAGUAGUUCUUGCCUGGUU [hsa-miR-4645-3p]”, the “5+ nucleoli phenotype percent effect” value with MCF10A [1] is -25%. For the same sequence, in the data set with MCF10A [2], the “one-nucleolus phenotype percent effect” value is 18.2%. Further, in the data set with MCF10A [3], the percent viability was determined as 52.7%.
The like results for ACUCAAAAUGGGGGCGCUUUCC [hsa-miR-373-5p] were, in that order, 34.3%, -11.8% and 83.7%.
In the case of CGAGCCUCAAGCAAGGGACUU [hsa-miR-2114-3p], in the data set with MCF10A [1], the “5+ nucleoli phenotype percent effect” value was -15.9%. The “one-nucleolus phenotype percent effect” value in the data set with MCF10A [2] worked out at 19.8%. Also, in the data set on MCF10A [3], the percent viability was determined as 32.7%.
With “UACCUGGGAGACUGAGGUUGGA [hsa-miR-7851-3p]”, the “5+ nucleoli phenotype percent effect” value with MCF10A [1] turned out to be 24.6%. In addition, in the data set with MCF10A [2], the “one-nucleolus phenotype percent effect” value was -15.4%. Besides, in the data set with MCF10A [3], the percent viability was found to be 61.5%.
